Substrate: CC(=O)Oc1ccc([N+](=O)[O-])cc1
Test: purified protein
Format: biochemical, Phocaeicola vulgatus
Conditions: 10 nM enzyme, 100 mM phosphate-citrate buffer pH 7.0, 25 °C, 1% DMSO

B1: PvSAE (Phocaeicola vulgatus ATCC 8482) (protein)
chain: ERKYSTFYEQRATLFEELPVTSKDIIFLGNSITNGCEWAELFQNKNVKNRGISGDICMGVYDRLDPIVKGKPAKIFLLIGINDVSRGTSADKIISEISMIVRKIKQESPKTKLYLQSVLPVNDCYGMFNGHTSRWQVVKQINDLLEPLAVKEGVAYIDLYSHFVEKETGKMNPVYTNDGLHLLGKGYLLWRDIVKPYVDQK
notes: signal peptide removed (predicted cleavage 19/20); E. coli BL21(DE3) Gold
Km: 80 ± 6 µM | kcat: 75 ± 1 s⁻¹ | kcat/Km: 930000 ± 70000 M⁻¹ s⁻¹

Reference: PMC9063846, “The structure of Phocaeicola vulgatus sialic acid acetylesterase” (Acta Crystallographica. Section D, Structural Biology, 2022)
